In PMC7725820, “Heme biosynthesis depends on previously unrecognized acquisition of iron-sulfur cofactors in human amino-levulinic acid dehydratase” (Nature Communications, 2020):

B1: N-terminally MBP-tagged human ALAD, wild type (MBP-ALAD) (enzyme, UniProt P13716 1-330, looked up)
chain: MQPQSVLHSGYFHPLLRAWQTATTTLNASNLIYPIFVTDVPDDIQPITSLPGVARYGVKRLEEMLRPLVEEGLRCVLIFGVPSRVPKDERGSAADSEESPAIEAIHLLRKTFPNLLVACDVCLCPYTSHGHCGLLSENGAFRAEESRQRLAEVALAYAKAGCQVVAPSDMMDGRVEAIKEALMAHGLGNRVSVMSYSAKFASCFYGPFRDAAKSSPAFGDRRCYQLPPGARGLALRAVDRDVREGADMLMVKPGMPYLDIVREVKDKHPDLPLAVYHVSGEFAMLWHGAQAGAFDLKAAVLEAMTAFRRAGADIIITYYTPQLLQWLKEE
notes: aminolevulinic acid dehydratase (ALAD), human, wild type; One [Fe4S4] cluster per monomer when purified anaerobically; The three cofactor states (Fe-S, apo, zinc) are told apart by the assay; the ~480 kD hexamer fits it; also called ALAD WT; [Fe4S4]-ALAD; source: E. coli BL21(DE3), expressed along with the A. vinelandii isc operon, purified anaerobically (amylose resin); also purified …
B2: MBP-ALAD C162A (enzyme, human, UniProt P13716 1-330, looked up)
chain: MQPQSVLHSGYFHPLLRAWQTATTTLNASNLIYPIFVTDVPDDIQPITSLPGVARYGVKRLEEMLRPLVEEGLRCVLIFGVPSRVPKDERGSAADSEESPAIEAIHLLRKTFPNLLVACDVCLCPYTSHGHCGLLSENGAFRAEESRQRLAEVALAYAKAGAQVVAPSDMMDGRVEAIKEALMAHGLGNRVSVMSYSAKFASCFYGPFRDAAKSSPAFGDRRCYQLPPGARGLALRAVDRDVREGADMLMVKPGMPYLDIVREVKDKHPDLPLAVYHVSGEFAMLWHGAQAGAFDLKAAVLEAMTAFRRAGADIIITYYTPQLLQWLKEE
notes: aminolevulinic acid dehydratase (ALAD), human; source: E. coli BL21(DE3), expressed along with the isc operon, purified anaerobically (amylose resin); not shown: MBP, N-terminal, kept
B3: MBP-ALAD C124A (enzyme, human, UniProt P13716 1-330, looked up)
chain: MQPQSVLHSGYFHPLLRAWQTATTTLNASNLIYPIFVTDVPDDIQPITSLPGVARYGVKRLEEMLRPLVEEGLRCVLIFGVPSRVPKDERGSAADSEESPAIEAIHLLRKTFPNLLVACDVCLAPYTSHGHCGLLSENGAFRAEESRQRLAEVALAYAKAGCQVVAPSDMMDGRVEAIKEALMAHGLGNRVSVMSYSAKFASCFYGPFRDAAKSSPAFGDRRCYQLPPGARGLALRAVDRDVREGADMLMVKPGMPYLDIVREVKDKHPDLPLAVYHVSGEFAMLWHGAQAGAFDLKAAVLEAMTAFRRAGADIIITYYTPQLLQWLKEE
notes: as for B2
B4: MBP-ALAD C119A (enzyme, human, UniProt P13716 1-330, looked up)
chain: MQPQSVLHSGYFHPLLRAWQTATTTLNASNLIYPIFVTDVPDDIQPITSLPGVARYGVKRLEEMLRPLVEEGLRCVLIFGVPSRVPKDERGSAADSEESPAIEAIHLLRKTFPNLLVAADVCLCPYTSHGHCGLLSENGAFRAEESRQRLAEVALAYAKAGCQVVAPSDMMDGRVEAIKEALMAHGLGNRVSVMSYSAKFASCFYGPFRDAAKSSPAFGDRRCYQLPPGARGLALRAVDRDVREGADMLMVKPGMPYLDIVREVKDKHPDLPLAVYHVSGEFAMLWHGAQAGAFDLKAAVLEAMTAFRRAGADIIITYYTPQLLQWLKEE
notes: as for B2
B5: MBP-ALAD C132A (enzyme, human, UniProt P13716 1-330, looked up)
chain: MQPQSVLHSGYFHPLLRAWQTATTTLNASNLIYPIFVTDVPDDIQPITSLPGVARYGVKRLEEMLRPLVEEGLRCVLIFGVPSRVPKDERGSAADSEESPAIEAIHLLRKTFPNLLVACDVCLCPYTSHGHAGLLSENGAFRAEESRQRLAEVALAYAKAGCQVVAPSDMMDGRVEAIKEALMAHGLGNRVSVMSYSAKFASCFYGPFRDAAKSSPAFGDRRCYQLPPGARGLALRAVDRDVREGADMLMVKPGMPYLDIVREVKDKHPDLPLAVYHVSGEFAMLWHGAQAGAFDLKAAVLEAMTAFRRAGADIIITYYTPQLLQWLKEE
notes: as for B2
B6: MBP-ALAD Mut AFR-AAA (enzyme, human, UniProt P13716 1-330, looked up)
chain: MQPQSVLHSGYFHPLLRAWQTATTTLNASNLIYPIFVTDVPDDIQPITSLPGVARYGVKRLEEMLRPLVEEGLRCVLIFGVPSRVPKDERGSAADSEESPAIEAIHLLRKTFPNLLVACDVCLCPYTSHGHCGLLSENGAFRAEESRQRLAEVALAYAKAGCQVVAPSDMMDGRVEAIKEALMAHGLGNRVSVMSYSAKFASCFYGPFRDAAKSSPAFGDRRCYQLPPGARGLALRAVDRDVREGADMLMVKPGMPYLDIVREVKDKHPDLPLAVYHVSGEFAMLWHGAQAGAFDLKAAVLEAMTAAARAGADIIITYYTPQLLQWLKEE
notes: aminolevulinic acid dehydratase (ALAD), human, Ala306-Phe307-Arg308 motif replaced by alanines; source: E. coli BL21(DE3), expressed along with the isc operon, purified anaerobically (amylose resin); not shown: MBP, N-terminal, kept
B7: MBP-ALAD C223A (enzyme, human, UniProt P13716 1-330, looked up)
chain: MQPQSVLHSGYFHPLLRAWQTATTTLNASNLIYPIFVTDVPDDIQPITSLPGVARYGVKRLEEMLRPLVEEGLRCVLIFGVPSRVPKDERGSAADSEESPAIEAIHLLRKTFPNLLVACDVCLCPYTSHGHCGLLSENGAFRAEESRQRLAEVALAYAKAGCQVVAPSDMMDGRVEAIKEALMAHGLGNRVSVMSYSAKFASCFYGPFRDAAKSSPAFGDRRAYQLPPGARGLALRAVDRDVREGADMLMVKPGMPYLDIVREVKDKHPDLPLAVYHVSGEFAMLWHGAQAGAFDLKAAVLEAMTAFRRAGADIIITYYTPQLLQWLKEE
notes: as for B2
B8: MBP-ALAD K252M (enzyme, human, UniProt P13716 1-330, looked up)
chain: MQPQSVLHSGYFHPLLRAWQTATTTLNASNLIYPIFVTDVPDDIQPITSLPGVARYGVKRLEEMLRPLVEEGLRCVLIFGVPSRVPKDERGSAADSEESPAIEAIHLLRKTFPNLLVACDVCLCPYTSHGHCGLLSENGAFRAEESRQRLAEVALAYAKAGCQVVAPSDMMDGRVEAIKEALMAHGLGNRVSVMSYSAKFASCFYGPFRDAAKSSPAFGDRRCYQLPPGARGLALRAVDRDVREGADMLMVMPGMPYLDIVREVKDKHPDLPLAVYHVSGEFAMLWHGAQAGAFDLKAAVLEAMTAFRRAGADIIITYYTPQLLQWLKEE
notes: as for B2
B9: MBP-ALAD C122A (enzyme, human, UniProt P13716 1-330, looked up)
chain: MQPQSVLHSGYFHPLLRAWQTATTTLNASNLIYPIFVTDVPDDIQPITSLPGVARYGVKRLEEMLRPLVEEGLRCVLIFGVPSRVPKDERGSAADSEESPAIEAIHLLRKTFPNLLVACDVALCPYTSHGHCGLLSENGAFRAEESRQRLAEVALAYAKAGCQVVAPSDMMDGRVEAIKEALMAHGLGNRVSVMSYSAKFASCFYGPFRDAAKSSPAFGDRRCYQLPPGARGLALRAVDRDVREGADMLMVKPGMPYLDIVREVKDKHPDLPLAVYHVSGEFAMLWHGAQAGAFDLKAAVLEAMTAFRRAGADIIITYYTPQLLQWLKEE
notes: as for B2

Biological target: the molecule itself
Assay: native gel or EMSA; NativePAGE Bis-Tris gel; aerobically purified, EDTA-treated metal-free wild-type ALAD (aero-apo-ALAD WT)

Stoichiometry N, 6:
B1

Biological target: the molecule itself
Assay: native gel or EMSA; NativePAGE Bis-Tris gel; MBP-ALAD proteins expressed along with the isc operon in E. coli and purified anaerobically

Stoichiometry N, 6:
B2, B3, B4, B5, B6, B7, B8, B9
